What was measured:
[1] = biological target: T1, His-TEV-RXRα-S427F (223-462) (Homo sapiens (Human), UniProt P19793); assay: SPR (also analytical size exclusion chromatography); S427F mutant of RXRα; binding seen without added ligand
T1 chain: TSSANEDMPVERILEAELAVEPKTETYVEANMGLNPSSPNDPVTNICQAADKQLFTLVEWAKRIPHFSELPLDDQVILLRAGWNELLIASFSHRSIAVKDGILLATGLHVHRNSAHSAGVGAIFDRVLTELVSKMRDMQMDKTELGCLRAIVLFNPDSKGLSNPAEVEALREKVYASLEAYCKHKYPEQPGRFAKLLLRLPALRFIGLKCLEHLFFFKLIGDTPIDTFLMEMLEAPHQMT

[2] = biological target: T2, His-TEV-RXRα-WT (223-462) (Homo sapiens (Human), UniProt P19793); assay: SPR; monomer fraction of RXRα WT used (apo tetramer is inactive)
T2 chain: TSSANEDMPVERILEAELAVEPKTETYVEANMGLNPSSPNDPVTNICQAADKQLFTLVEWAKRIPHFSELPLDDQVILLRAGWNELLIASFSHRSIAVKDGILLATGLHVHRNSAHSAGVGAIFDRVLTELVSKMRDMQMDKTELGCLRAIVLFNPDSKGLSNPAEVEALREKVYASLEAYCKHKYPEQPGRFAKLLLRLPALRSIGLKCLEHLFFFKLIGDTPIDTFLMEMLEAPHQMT

[3] = biological target: the molecule itself; assay: SEC; 16/60 Sephacryl S-300 in 25 mM Tris-HCl pH 8.0, 100 mM NaCl, 10% glycerol, 1 mM TCEP; no exogenous ligand; tetramer and monomer peaks
[4] = biological target: T3, His-TEV-PPARγ (234-505) (human, UniProt P37231 234-505); assay: SEC; analytical, 10/300 Superdex 200; equivalent molar volumes loaded; heterodimer formed by mixing the two proteins at a 1:1 molar ratio; no ligand; settings: both partners purified
T3 construct: The methods name no species for the bacterial construct; No tag cleavage is described for this preparation; also called PPARg; source: E. coli, purified (Ni-NTA, size exclusion chromatography)
T3 sequence (looked up): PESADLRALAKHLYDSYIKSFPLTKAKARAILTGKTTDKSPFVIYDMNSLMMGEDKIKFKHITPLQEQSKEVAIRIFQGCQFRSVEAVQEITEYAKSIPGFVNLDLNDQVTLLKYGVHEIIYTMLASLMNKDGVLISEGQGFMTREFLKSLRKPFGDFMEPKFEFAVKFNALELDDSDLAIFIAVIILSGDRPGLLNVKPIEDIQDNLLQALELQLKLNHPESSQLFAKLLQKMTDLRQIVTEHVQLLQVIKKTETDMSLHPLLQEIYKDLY

B1: His-TEV-PPARγ (234-505) (protein)
chain: PESADLRALAKHLYDSYIKSFPLTKAKARAILTGKTTDKSPFVIYDMNSLMMGEDKIKFKHITPLQEQSKEVAIRIFQGCQFRSVEAVQEITEYAKSIPGFVNLDLNDQVTLLKYGVHEIIYTMLASLMNKDGVLISEGQGFMTREFLKSLRKPFGDFMEPKFEFAVKFNALELDDSDLAIFIAVIILSGDRPGLLNVKPIEDIQDNLLQALELQLKLNHPESSQLFAKLLQKMTDLRQIVTEHVQLLQVIKKTETDMSLHPLLQEIYKDLY
binding result [1]: binds
binding result [2]: binds

B2: His-TEV-RXRα-WT (223-462) (domain or fragment, human, UniProt P19793 223-462, looked up)
chain: TSSANEDMPVERILEAELAVEPKTETYVEANMGLNPSSPNDPVTNICQAADKQLFTLVEWAKRIPHFSELPLDDQVILLRAGWNELLIASFSHRSIAVKDGILLATGLHVHRNSAHSAGVGAIFDRVLTELVSKMRDMQMDKTELGCLRAIVLFNPDSKGLSNPAEVEALREKVYASLEAYCKHKYPEQPGRFAKLLLRLPALRSIGLKCLEHLFFFKLIGDTPIDTFLMEMLEAPHQMT
stoichiometry N [3]: 4

B3: His-TEV-RXRα-S427F (223-462) (domain or fragment, human, UniProt P19793 223-462, looked up)
chain: TSSANEDMPVERILEAELAVEPKTETYVEANMGLNPSSPNDPVTNICQAADKQLFTLVEWAKRIPHFSELPLDDQVILLRAGWNELLIASFSHRSIAVKDGILLATGLHVHRNSAHSAGVGAIFDRVLTELVSKMRDMQMDKTELGCLRAIVLFNPDSKGLSNPAEVEALREKVYASLEAYCKHKYPEQPGRFAKLLLRLPALRFIGLKCLEHLFFFKLIGDTPIDTFLMEMLEAPHQMT
notes: S427F is a recurrent mutation found in patients' tumours; No tag cleavage is described for this preparation; also called the mutant; source: E. coli, purified (Ni-NTA, size exclusion chromatography)
binding result [4]: binds

Reference: article PMC5524640, “Evasion of immunosurveillance by genomic alterations of PPARγ/RXRα in bladder cancer” (Nature Communications, 2017)
